Source: patent US20220195067A1 (LAMKAP BIO BETA, published 2022)
Changes are numbered by the printed parent chain.

T1: his-tagged recombinant huCEACAM3 (R&D Systems, #9868-CM) (human, UniProt P40198 35-155)
T1 construct: Bought reagent; also called rec. hCEACAM3; recombinant soluble human CEACAM3; not shown: His tag
T1 sequence (looked up): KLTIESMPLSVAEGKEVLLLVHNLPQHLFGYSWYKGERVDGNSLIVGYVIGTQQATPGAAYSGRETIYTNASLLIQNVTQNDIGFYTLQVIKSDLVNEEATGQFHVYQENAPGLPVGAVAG

B1: K2AC84 (bispecific antibody, human IgG1, kappa, lambda)
heavy: not shown
light 1: QSVLTQPPSVSAAPGQKVTISCSGSSSNIGIGLVSWYQQLPGTAPKLLIYNVNTRPSGIPDRFSGSKSGTSATLGITGLQTGDEADYYCGTWDFSYRVDFGGGTKLTVLGQPKAAPSVTLFPPSSEELQANKATLVCLISDFYPGAVTVAWKADSSPVKAGVETTTPSKQSNNKYAASSYLSLTPEQWKSHRSYSCQVTHEGSTVEKTVAPTECS
light 2: not shown
notes: Kappa-lambda body; also called CD47xCEACAM5 bispecific antibody K2AC84; AC84 (CEACAM5 arm)
B2: K2AC22 (bispecific antibody, human IgG1, kappa, lambda)
heavy: not shown
light 1: B1 light 1 with G30A, I31N, L33I, N51F, V52D, T54L, R97G, V98I, D99V
light 2: not shown
notes: Kappa-lambda body, human IgG1, one arm for CEACAM5 and one for CD47; comparison antibody from WO2019234576; also called state of the art bispecific CEAxCD47 antibody K2AC22; CD47xCEACAM5 bispecific antibody K2AC22
B3: K2AC100 (bispecific antibody, human IgG1, kappa, lambda)
heavy: not shown
light 1: B1 light 1 with I31Y, V52G, T54I
light 2: not shown
notes: Kappa-lambda body; also called CD47xCEACAM5 bispecific antibody K2AC100; AC100 (CEACAM5 arm)

biological target: T1, his-tagged recombinant huCEACAM3 (R&D …); assay: BLI (Octet), KD on CEACAM3 against KD on CEACAM5
Description: The affinity of the anti-human CEACAM5 arm of the CD47×CEACAM5 bispecific antibodies of the invention for recombinant soluble human CEACAM5 was determined using the Bio-Layer Interferometry (BLI) technology. An OctetRED96 instrument and Protein A biosensors were used (Sartorius). The measurement was performed at 30° C. After hydration, pre-conditioning and a baseline step in Kinetic buffer (PBS, 0.002% Tween 20, 0.01% BSA, Kathon; Sartorius), biosensors were loaded for 5 min with the κλ body at 0.5 μg/mL in Kinetic buffer. Then, biosensors were dipped into a serial dilution of recombinant human CEACAM5 Extra Cellular Domain (ECD) soluble protein (produced in house), starting at 50 nM with a 2× dilution factor. The association and dissociation phases were monitored for 600 seconds each. Biosensors were regenerated using 10 mM glycine pH 1.7. A standard acquisition rate was applied (5.0 Hz, averaging by 20). Curves were processed with a reference well subtraction, a Y alignment on the baseline, without interstep correction. The affinity was measured applying a 1:1 global fitting model on the full association and dissociation steps. The binding affinity (KD) of the bispecific antibodies of the invention to recombinant human CD47 was determined by the same experimental procedure.
The affinity of the anti-human CEACAM5 arms of the CD47×CEACAM5 bispecific antibodies of the invention for recombinant soluble human CEACAM3 was determined using the Bio-Layer Interferometry (BLI) technology and an OctetRED96 instrument. HIS1K biosensors (Sartorius), loaded with an anti-His tag antibody, were used to capture his-tagged recombinant huCEACAM3 (R&D Systems, #9868-CM). The measurement was performed at 30° C. After hydration, pre-conditioning and a baseline step in Kinetic buffer (PBS, 0.002% Tween 20, 0.01% BSA, Kathon; Sartorius), biosensors were loaded for 5 min with the recombinant huCEACAM3 at 5 μg/mL in Kinetic buffer. […] The association and dissociation phases were monitored for 60 seconds and 120 seconds respectively. […]

Fold difference hCEACAM3/hCEACAM5 (ratio of KD)	Binder
137 fold	B1
83 fold	B2
146 fold	B3

biological target: T1, his-tagged recombinant huCEACAM3 (R&D …); assay: BLI (Octet), his-tagged CEACAM3 on HIS1K biosensor, antibody as analyte
Description: The affinity of the anti-human CEACAM5 arms of the CD47×CEACAM5 bispecific antibodies of the invention for recombinant soluble human CEACAM3 was determined using the Bio-Layer Interferometry (BLI) technology and an OctetRED96 instrument. HIS1K biosensors (Sartorius), loaded with an anti-His tag antibody, were used to capture his-tagged recombinant huCEACAM3 (R&D Systems, #9868-CM). The measurement was performed at 30° C. After hydration, pre-conditioning and a baseline step in Kinetic buffer (PBS, 0.002% Tween 20, 0.01% BSA, Kathon; Sartorius), biosensors were loaded for 5 min with the recombinant huCEACAM3 at 5 μg/mL in Kinetic buffer. Then, biosensors were dipped into a serial dilution of k bodies, starting at 667 nM with a 2× dilution factor. The association and dissociation phases were monitored for 60 seconds and 120 seconds respectively. Biosensors were regenerated using 10 mM glycine pH 1.7. A standard acquisition rate was applied (5.0 Hz, averaging by 20). Curves were processed with a double reference subtraction, a Y alignment on the baseline and an interstep correction. The affinity was measured applying a 1:1 global fitting model on the full association step and the first 5 seconds of the dissociation step.

Kd	Binder
360 nM	B1
10000 nM	B2
700 nM	B3
